Results on one substance are retold here after publication doi:10.1101/2025.05.15.654217.

This assay concerns the target 3×FLAG–SpaO^L-V5pBpa (Salmonella enterica serovar Typhimurium SL1344) (UniProt P40699). Kind of assay: cross-linking.
Sequence of UniProt P40699 (P40699 whole entry, looked up): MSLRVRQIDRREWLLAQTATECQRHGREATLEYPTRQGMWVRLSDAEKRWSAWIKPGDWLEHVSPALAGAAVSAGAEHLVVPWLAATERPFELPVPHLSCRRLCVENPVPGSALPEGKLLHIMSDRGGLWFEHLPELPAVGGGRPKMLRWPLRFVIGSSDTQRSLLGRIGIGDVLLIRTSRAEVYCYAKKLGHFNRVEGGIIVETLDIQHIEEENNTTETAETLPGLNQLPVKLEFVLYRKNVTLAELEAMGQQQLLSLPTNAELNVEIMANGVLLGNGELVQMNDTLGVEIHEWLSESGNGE

Substance “M45-SpaO^short F34pBpa (natural protein)” yielded a stoichiometry N (SpaO^short per SpaO^L) of 2.
